Assay results as given in patent US20230263867.

What was measured:
[1] = tested on: fluorescent tripeptidyl substrate PRR, MeOC-GGG-PRR-GG-DPA-KK-NH2
[2] = target: albumin in human plasma / human serum (UniProt P02768)
[3] = tested on: recombinant pro-fruit bromelain
[4] = tested on: recombinant pro-stem bromelain
[5] = tested on: T1, FVR-7-amino-4-methylcoumarin
T1 sequence: FVR

Chain of UniProt P02768 (P02768 whole entry, looked up): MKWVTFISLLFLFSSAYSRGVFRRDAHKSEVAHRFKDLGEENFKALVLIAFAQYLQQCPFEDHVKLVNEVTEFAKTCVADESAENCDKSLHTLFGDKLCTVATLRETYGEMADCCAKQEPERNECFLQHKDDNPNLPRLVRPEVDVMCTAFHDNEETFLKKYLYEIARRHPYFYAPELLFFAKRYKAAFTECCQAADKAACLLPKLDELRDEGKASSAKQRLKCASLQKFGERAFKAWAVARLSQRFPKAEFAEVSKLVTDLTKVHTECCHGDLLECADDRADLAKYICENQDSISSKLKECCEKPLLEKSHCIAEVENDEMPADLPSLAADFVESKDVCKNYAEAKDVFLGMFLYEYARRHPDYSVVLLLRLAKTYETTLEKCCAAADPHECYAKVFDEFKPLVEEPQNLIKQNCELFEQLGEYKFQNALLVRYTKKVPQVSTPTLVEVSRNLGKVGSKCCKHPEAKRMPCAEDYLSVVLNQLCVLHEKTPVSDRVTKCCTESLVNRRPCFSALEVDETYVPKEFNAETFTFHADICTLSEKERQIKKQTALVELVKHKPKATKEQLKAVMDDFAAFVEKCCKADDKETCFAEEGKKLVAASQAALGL

Q: For activated stem bromelain, which “initial rate of proteolysis of PRR (fluorescence)” value [1] is on record?
A: about 0.024 µg PRR molecules per min

Q: With “active ananain (recombinant, obtained by activation of pro-ananain)” as the substance, how does the “proteolysis of human plasma/serum proteins, SDS-PAGE” value [2] read?
A: The clear reduction of albumin in sample A, C and D in the presence of ananain indicates that albumin is a protein substrate for ananain

Q: And the “cleavage of pro-FB on an ananain-immobilized column, SDS-PAGE” value [3]?
A: The collected activated FB was subject to SDS-PAGE analysis and was confirmed to be fully activated

Q: And the “cleavage of pro-SB by active ananain, SDS-PAGE time course” value [4]?
A: mixing active ananain and pro-SB at a weight ratio of 1:25 led to a complete cleavage of pro-SB within 10 min, resulting in two fragments of 24 and 12 kDa

Q: What about the “cleavage of pro-SB on an ananain-immobilized column, SDS-PAGE” value [4] of the same substance?
A: The collected activated SB was subject to SDS-PAGE analysis and was confirmed to be fully activated

Q: How did the “proteolysis of FVR-AMC (fluorescence)” value [5] turn out when recombinant pro-fruit bromelain was run?
A: pro-FB did not cleave FVR-AMC at all

Q: For recombinant pro-stem bromelain, which “initial rate of proteolysis of PRR (fluorescence)” value [1] is on record?
A: the cleavage of PRR by 100 nM Pro-SB was negligible
